According to the nanobody polyreactivity screen of Harvey et al. (2022):

Assay: yeast display, Sf9 membrane polyspecificity reagent, FACS + sequencing; frameworks hold sequencing errors
How it was run: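 Galactose-induced (36–48 hours) yeast carrying a synthetic nanobody display library were exposed to 10% biotinylated, detergent-solubilized Sf9 membrane reagent at 4 °C for 1 hour. FACS followed streptavidin microbead enrichment, using low and high (top ~1%) gates for expression (anti-HA) and reagent binding (streptavidin). Colony PCR, MiSeq 2 × 250 sequencing and CDR-length filtering followed. Labels for polyreactivity reflect the gate of origin.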

| Sequence | polyreactivity (PSR sort gate) |
| --- | --- |
| QVQLVESGGGLVQAGGSLRLSCAASGTTFGQYAKGWYRQAPGKERDLLAAISSGGRTNYADSVKGRFTISRDNAKNTVYLQMNCVKPEDSAVYDCAARYYFPFRRFRRMDYWGQGTQVTVSS | high polyreactivity |
| QVQLVESGGGLVQAGGSLRLSCAASGTTFGRYAMGWYRQAPGKERELVAAITRSGGRTYYADSVKERFTISRDNAKNTVYLQMNSLIPEDTAVYYCAAVGNLYYTSLWQYDYWGQGTQVTVSS | high polyreactivity |
| QVQLVESGGGLVQAGGSLRLSCAASGTTFKTYCMGRYRQAPGKERELVAAISRRGGSTSYADSVKGRFTISRDNAKNTVYLQMNSLKPEDTAVYYCNVLGWWHVWGYDYWGQGTQVTVSS | high polyreactivity |
| QVQLVESGGGLVQAGGSLRLSCAASGTTFTDNAMGWYRQAPGKERELVAAITSGSSTNYADSVKGRFTISRDNAKNTVSLQMNSLKPEDTAVYYCATGQVPQYSTGDYWGQGTQVTVSS | low polyreactivity |
| QVQLVESGGGLVQAGGSLRLSCAASGTTLPYYAMGWYRQAPGKERELVAAITSSGGDTYYADSVKGRFTISRDNAKNTVYLQMNSLKPEDTAVYYCAKSYSARSTVRKLFYFAYDYWGQGTQVTVSS | low polyreactivity |
| QVQLVESGGGLVQAGGSLRLSCAASGTYFNAMGWYRQAPGKERELVAAISLSGGRTYYADSVKGRFTISRDNAKNTVYLQMNSLKPEDTAVYYCAASNRGATRRQVNYWGQGTQVTVSS | high polyreactivity |
| QVQLVESGGGLVQAGGSLRLSCAASGVIFGPNAMGWYRQAPGKERELVAAIRWSGSRTYYADSVKGRFTISRDNAKNTVYLQMNSLKPEDTAVYYCAATGGLNGALSRLEYWGQGTQVTVSS | high polyreactivity |
| QVQLVESGGGLVQAGGSLRLSCAASGVIFGYYAMGWDRQAPGKERELVAAITLSGSRTYYADSVTGRFTISRDTAKNTVDLQMNSLKPEDTAVYYCAKRRYWYYRSRDWFVSGDYWGQGTQVTVSS | low polyreactivity |
| QVQLVESGGGLVQAGGSLRLSCAASGVILSAYAMGLYRQAPAKERELVAAITGSGGRTYYADSVKGRFTISRDNAKNTVYFQMNSLKPEDTAVNYCAARYTYVGSYTYNSWGQGPQVTVSS | high polyreactivity |
| QVQLVESGGGLVQAGGSLRLSCAASGVNAMGWYRQAPGKEREFVAAITSIGGSTYYADSVKGRFTISRDNAKNTVYLQLNSLKPEDTAVYDCNTDRGPVKVSPLYESWGQGTQVTVSS | low polyreactivity |
| QVQLVESGGGLVQAGGSLRLSCAASGVTFTYYAMGWYRQAPGKERELVAAISKSGGRTYYADSVKGRFTISRDNAKNTVYLQMNSLKPEDTAVYYCAARITREGYYWGQGTQVTVSS | high polyreactivity |
| QVQLVESGGGLVQAGGSLRLSCAASGVTFYYYAMGWYRQAPGKERELVASITSTDSTTYADSVKGRFTISRDNAKNTVYLQMNRLKPEDTAVYYCNRLYNHWYGGLDYWGQGTQVTVSS | high polyreactivity |
| QVQLVESGGGLVQAGGSLRLSCAASGYIFAGNAMGWYRQAPGKERELVAVITRGGRTYYADSVKGRFTISRDNAKNTVYLQMNSLKPEDTAVYYCAARYPYRGWGQGTQVTVSS | high polyreactivity |
| QVQLVESGGGLVQAGGSLRLSCAASGYIFANNAMGWYRQAPGKERELVAAISSSGGRTYYADSVKGRFTISRDNAKNTVYLQMNSLKPEDTAVYYCNKYGTALWRYYYWGQGTQVTVSS | high polyreactivity |
| QVQLVESGGGLVQAGGSLRLSCAASGYIFARYAMGWYRQAPGTERELVARITTGDSTYYADSVKGRFTISRDNAKNTVYLQMNSLKPEDTAVYYCAADDNVSVVGLYYWGQGTQVTVSS | low polyreactivity |
| QVQLVESGGGLVQAGGSLRLSCAASGYIFDDNAMGWYRQAPGKERELVATNYADSVKGRFTISRDNAKNTVYLQMNSLKPEDTAVFYCAKAGYRSEFEYWGQGTQVTVSS | low polyreactivity |
| QVQLVESGGGLVQAGGSLRLSCAASGYIFDLNAMGWSRQAPGKERELVAANSTGGGTYYADSVKGRFTISRDNAKNTVYLQMNILKPEDTAVYYCAADWGYWYAEYDYWGQGTQVTVSS | low polyreactivity |
